T1: full length human ACVR1 (amino acids 1-509, R206H, of accession #Q04771) on HEK293/BRE-luc/hACVR1-R206H-clone … (human, UniProt Q04771 21-509)
T1 construct: Expressed as amino acids 1-509; also called HEK293/hACVR1-R206H
T1 sequence: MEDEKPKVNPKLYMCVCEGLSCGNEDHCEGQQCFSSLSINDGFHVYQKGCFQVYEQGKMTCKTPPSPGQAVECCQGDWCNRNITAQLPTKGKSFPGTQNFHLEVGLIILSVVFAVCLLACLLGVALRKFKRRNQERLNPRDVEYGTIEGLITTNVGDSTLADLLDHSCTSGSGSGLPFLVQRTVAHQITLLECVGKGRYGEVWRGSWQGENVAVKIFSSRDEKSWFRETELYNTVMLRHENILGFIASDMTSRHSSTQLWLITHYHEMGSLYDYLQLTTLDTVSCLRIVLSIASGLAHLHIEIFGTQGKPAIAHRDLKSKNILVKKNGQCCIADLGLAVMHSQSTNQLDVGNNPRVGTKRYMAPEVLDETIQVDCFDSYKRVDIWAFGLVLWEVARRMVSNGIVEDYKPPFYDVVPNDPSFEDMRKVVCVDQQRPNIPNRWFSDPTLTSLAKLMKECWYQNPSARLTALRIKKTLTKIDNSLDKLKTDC

T2: mouse ACVR1 extracellular domain expressed with a C-terminal myc-myc-hexahistidine tag (mouse)
T2 construct: also called mACVR1-mmh; mACVR1.mmh
T2 chain: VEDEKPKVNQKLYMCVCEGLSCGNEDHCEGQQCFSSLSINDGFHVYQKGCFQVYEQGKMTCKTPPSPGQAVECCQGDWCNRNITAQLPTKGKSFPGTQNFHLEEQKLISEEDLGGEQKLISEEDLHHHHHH

T3: dimeric human ACVR1 (human, UniProt Q04771 21-123, limits assumed)
T3 construct: ACVR1'; also called Human Receptor ACVR1
T3 sequence (looked up): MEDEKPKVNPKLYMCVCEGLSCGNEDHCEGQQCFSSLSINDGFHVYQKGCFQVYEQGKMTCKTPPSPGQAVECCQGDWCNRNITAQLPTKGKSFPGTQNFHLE

T4: dimeric human BMPR1B (human, UniProt O00238 14-126, limits assumed)
T4 construct: Construct and dimerising part not described; also called Human Receptor BMPR1B
T4 sequence (looked up): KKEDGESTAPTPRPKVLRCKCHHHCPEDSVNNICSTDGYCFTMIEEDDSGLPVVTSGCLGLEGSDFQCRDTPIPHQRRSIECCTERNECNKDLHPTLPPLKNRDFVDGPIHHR

T5: dimeric mouse BMPR1B (mouse, UniProt P36898 14-126, limits assumed)
T5 construct: Construct and dimerising part not described; also called Mouse Receptor BMPR1B
T5 sequence (looked up): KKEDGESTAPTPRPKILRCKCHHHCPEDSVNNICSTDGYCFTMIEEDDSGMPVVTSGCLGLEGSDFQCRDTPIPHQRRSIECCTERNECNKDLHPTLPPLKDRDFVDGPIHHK


Columns and labels:
[1] = target: T1, full length human ACVR1 (amino acids …); assay: flow cytometry, 70 nM antibody on HEK293/hACVR1-R206H cells, 4C
Method: To assess binding of the anti-ACVR1 antibodies of the invention to ACVR1 receptors expressed on the cell surface, 70 nM of the antibodies were incubated with 5×10⁵ cells/well at 4° C. for 30 minutes in PBS (without calcium and magnesium) containing 2% FBS (flow buffer). […] Cells were fixed using BD CytoFix™ (Becton Dickinson, # 554655) and analyzed on IQue® Flow Cytometer (Intellicyt®). Unstained and secondary antibody alone controls were also tested on cells. The results were analyzed using ForeCyt® (IntelliCyt®) software to determine the geometric means of fluorescence for viable cells and the binding ratio was calculated by normalizing the geometric mean value of the test condition by the geometric mean value of the corresponding unstained cells.

[2] = target: T2, mouse ACVR1 extracellular domain …; assay: SPR Biacore T200, mAb captured by anti-human Fc, mACVR1-mmh injected, 37C
Method: Equilibrium dissociation constants (KD) for ACVR1 binding to purified anti-ACVR1 monoclonal antibodies were determined using a real-time surface plasmon resonance (SPR) based Biacore T200 biosensor. All binding studies were performed in 10 mM HEPES, 150 mM NaCl, 3 mM EDTA, and 0.05% v/v surfactant Tween-20, pH 7.4 (HBS-EP) running buffer at […]. The Biacore CM5 sensor surface was first derivatized by amine coupling with a monoclonal mouse anti-human Fc antibody (REGN2567) to capture anti-ACVR1 monoclonal antibodies. Different concentrations of ACVR1 reagents, human ACVR1 extracellular domain expressed with a C-terminal myc-myc-hexahistidine tag (hACVR1-mmh; REGN3111, SEQ ID NO: 63), mouse ACVR1 extracellular domain expressed with a C-terminal myc-myc-hexahistidine tag (mACVR1-mmh; REGN3407, SEQ ID NO: 65), human ACVR1 extracellular domain expressed with a C-terminal mouse IgG2a Fc tag (hACVR1-mFc; REGN3112, SEQ ID NO: 64); and mouse ACVR1 extracellular domain expressed with a C-terminal mouse IgG2a Fc tag (mACVR1-mFc, R&D system), at concentrations ranging from 0.41 nM to 100 nM in a series of 3-fold dilutions prepared in HBS-EP running buffer were injected at a flow rate of 50 μL/min for 1.5 minutes. The dissociation of different ACVR1 reagents bound to anti-ACVR1 monoclonal antibodies was monitored for 20 minutes in HBS-EP running buffer. At the end of each cycle, the anti-ACVR1 monoclonal antibodies capture surface was regenerated using a 12 sec injection of 20 mM H3PO4. The association rate (ka) and dissociation rate (kd) were determined by fitting the real-time binding sensorgrams to a 1:1 binding model with mass transport limitation using Scrubber 2.0c curve-fitting software. Binding dissociation equilibrium constant (KD) and dissociative half-life (t½) were calculated from the kinetic rates as: […]
Binding kinetics parameters for different ACVR1 reagents to anti-ACVR1 monoclonal antibodies of the invention at 37° C. are shown in Table 5 through Table 8.

[3] = target: T3, dimeric human ACVR1; assay: SPR Biacore T200, mAb captured by anti-human Fab, 100 nM dimeric receptor injected, 25C
Method: (§1) ACVR1 mAbs were tested for cross-reactivity to a panel of bone morphogenic protein type 1 receptors including human and mouse ACVR1, BMPR1A, and BMPR1B, as well as ACVRL1 on a Biacore T200 as follows. In order to measure the specificity of ACVR1 mAbs, ACVR1 mAbs were captured with anti-human Fab immobilized on a CM5 chip. 100 nM or 10 nM of dimeric human or mouse ACVR1, ACVRL1, BMPR1A or BMPR1B were injected at 30 μL/min for 2 min (duplicate injections) and the experiment was performed at 25° C. Binding of different receptors to the captured mAb was determined using Scrubber 2.0c software.

[4] = target: T4, dimeric human BMPR1B; assay: as above
Method: as §1

[5] = target: T5, dimeric mouse BMPR1B; assay: as above
Method: as §1

Binder | MFI-Normalized to Unstained Control [1] | 100 nM Ag Bound (RU) [2] | Kd [2] | koff [2] | kon [2] | t½ [2] | 100 nM Human Receptor Binding [3] | 100 nM Human Receptor Binding [4] | 100 nM Mouse Receptor Binding [5]
REGN 5168 (antibody, human IgG4 S228P, kappa, V domains shown, also called REGN 5168-L1) VH: QVQLVQSGAEVKEPGASVKVSCKASGYTFAEYYMHWVRQAPGQGLEWMGAINPSGSHTSYAQKFQGRVTMTRDTSTSTVYMELSSLRSEDTAVYYCARSISGKRGGDYYGMDVWGQGTTVTVSS VL: DIQMTQSPSTLSASVGDRVTITCRASQSISSWLAWYQQKPGKAPKLLIYKASSLESGVPSRFSGSGSGTEFTLTISSLQPDDFATYYCQQYSIFPFTFGGGTKVEIKR | 2250 fold | 42 RU | 1.24 nM | 0.00167 s⁻¹ | 1.34e+06 M⁻¹ s⁻¹ | 0.117 h | 147 RU | 20 RU | 1 RU
REGN 5166 (antibody, human IgG4 S228P, kappa, V domains shown, also called REGN 5166-L1) VH: QVQLVESGGGVVQPGRSLRLSCAASGFTFSAYWMHWVRQAPGKGLEWVAVISYDGSNKYYADSVKGRFTISRDHSKNTLYLQMNSLRAEDTAVYYCAKGDAYDSWRILLGGDYYGMDVWGQGTTVTVSS VL: EIVLTQSPGTLSLSPGERATLSCRASQSVSSSYLAWYQQKPGQAPRPLIYGASSRATGIPDRFSGSGSGTDFTLTISRLEPEDFAVYYCQQGGDAPPYTFGGGTKVEIKR | 2000 fold | 43 RU | 0.268 nM | 0.000181 s⁻¹ | 674000 M⁻¹ s⁻¹ | 1.07 h | 147 RU | 24 RU | 1 RU
REGN 5167 (antibody, human IgG4 S228P, kappa, V domains shown, also called REGN 5167-L1) VH: QLQLQESGPGLVKPSETLSLTCTVSGGSITSSSYYWAWIRQPPGKGLEWIGKIYYSGSTHYNPSLKSRVTISVDTSKNQFSLKLSSVTAADTAVYYCARVGGHGYGDSAGLAFDIWGQGTMVTVSS VL: EIVLTQSPGTLSLSPGERATLSCRASQSVSSAFLAWYQQKPGQAPRLLIYGASYRHTGIPDRFSGSGSGTDFTLTISRLEPEDFAVYYCQHYGVGPRTFGGGTKVEIKR | 1870 fold | 43 RU | 0.226 nM | 0.000161 s⁻¹ | 713000 M⁻¹ s⁻¹ | 1.2 h | 130 RU | 10 RU | 1 RU
